# Data as given in US20100260765A1 (AstraZeneca / MedImmune, published 2010).
# Numbering of substitutions follows the chain as printed.
# B1: 32G7 (antibody, V domains shown)
# VH: EVQLVESGGGLVKPGGSLRLSCAASGFTISSYSMNWVRQAPGKGLEWVSFISSRSNYIYYADSVKGRFTISRDNAKNSLYLQMNSLRAEDTAVYYCSKDDWFEELWGQGTLVTVSS
# VL: DIQMTQSPSSLSASVGDRVTITCRASQDIRNDLGWYQQKPGKAPKRLIYAASSLQSGVPSRFSGSGSGTEFTLTISSLQPEDFATYYCLQHNSFPWTFGQGTKVEIK
# B2: 33B1 (antibody, V domains shown)
# VH: B1 VH with I29F, S33T, S52D, N56S
# VL: B1 VL with D28G, A51T, Q90H
# B3: 29D4 (antibody, V domains shown)
# VH: QLQLQESGPGLVKPSETLSLTCTVSGGSISSRSNYWGWIRQPPGKGLEWIGTIYYSGHTYYNPSLKSRVSISVDTSKNQFSLKLSSVTATDTALYYCARQQLVLYYFEYWGQGTLVTVSS
# VL: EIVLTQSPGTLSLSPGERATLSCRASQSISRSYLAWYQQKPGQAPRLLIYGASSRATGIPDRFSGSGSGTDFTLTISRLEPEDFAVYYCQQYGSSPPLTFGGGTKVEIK
# B4: 29F7 (antibody, V domains shown)
# VH: QVQLVQSGAEVKKPGASVKVSCKASGYTFTSYDINWVRQATGQGLEWMGWMNPNSGKTGYAQKFQGRVTMTRSTSISTAYMELSSLRSEDTAVYYCARGGYSNLGWFDPWGQGTLVTVSS
# VL: DIQMTQSPSSVFASVGDRVTITCRASQGISTWLAWYQQKPGKAPKFLIYAASSLQSGVPSRFSGSGSGTDFTLTISSLQPDDFATYYCQQANNFPFTFGPGTKVDIK
# B5: 33C3 (antibody, V domains shown)
# VH: QVQLVESGGGLVKPGESLRLSCAASGFTFSDYYMSWIRQAPGKGLEWVSYISHGGSTIYYADSVKGRFTISRDNAKNSLYLQMNSLRVEDTAVYFCARDDFWSGYYFNWFDPWGQGALVTVSS
# VL: DIQMTQYPLSLSASVGDRVTITCRASQSISSFLNWYHQKPGKAPKLLIYGTSSLQSGVPSRFSGSGSGTDFTLTISSLQPEDFATYYCQQTYSIPLTFGGGTNVEIK
# B6: 1G6 (antibody, V domains shown)
# VH: EVQLLESGGGLVQPGGSLRLSCAASGFTFSSYAMSWVRQAPGKGLEWVSAISGGGGNTYYADSVKGRFTISRDNSKNTLYLQMNSLRAEDTAVYYCSKVATDYWGQGTLVTVSS
# VL: QPVLTQSSSASASLGSSVKLTCTLSSGHSSYIIAWHQQQPGKAPRYLMKLEGSGSYNKGSGVPDRFSGSSSGADRYLTISNLQFEDEADYYCETWDSYTVVFGGGTKLTVL
# B7: 29A11 (antibody, V domains shown)
# VH: B6 VH with S31N, S35N, S85R, S97A, V99A, A100S, T101G, Y103D
# VL: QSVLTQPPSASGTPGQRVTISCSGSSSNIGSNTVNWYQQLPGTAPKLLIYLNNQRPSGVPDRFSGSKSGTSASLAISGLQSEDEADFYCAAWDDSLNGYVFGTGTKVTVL
# B8: 30E3 (antibody, V domains shown)
# VH: EVQLLESGGGLVQPGGSLRLSCAASGFTFSNYALSWVRQAPGKGLEWVSAISGSGRNTYYADSVKGRFTLSRDNSKNTLFLQMNSLRAEDTAVYYCAKASGDNWGQGTLVTVSS
# VL: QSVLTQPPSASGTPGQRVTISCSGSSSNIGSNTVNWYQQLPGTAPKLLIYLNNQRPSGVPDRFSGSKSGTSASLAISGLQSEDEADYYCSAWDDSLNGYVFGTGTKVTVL
# Target: T1, KDR (human, UniProt P35968 20-1356)
# T1 sequence (P35968 20-1356): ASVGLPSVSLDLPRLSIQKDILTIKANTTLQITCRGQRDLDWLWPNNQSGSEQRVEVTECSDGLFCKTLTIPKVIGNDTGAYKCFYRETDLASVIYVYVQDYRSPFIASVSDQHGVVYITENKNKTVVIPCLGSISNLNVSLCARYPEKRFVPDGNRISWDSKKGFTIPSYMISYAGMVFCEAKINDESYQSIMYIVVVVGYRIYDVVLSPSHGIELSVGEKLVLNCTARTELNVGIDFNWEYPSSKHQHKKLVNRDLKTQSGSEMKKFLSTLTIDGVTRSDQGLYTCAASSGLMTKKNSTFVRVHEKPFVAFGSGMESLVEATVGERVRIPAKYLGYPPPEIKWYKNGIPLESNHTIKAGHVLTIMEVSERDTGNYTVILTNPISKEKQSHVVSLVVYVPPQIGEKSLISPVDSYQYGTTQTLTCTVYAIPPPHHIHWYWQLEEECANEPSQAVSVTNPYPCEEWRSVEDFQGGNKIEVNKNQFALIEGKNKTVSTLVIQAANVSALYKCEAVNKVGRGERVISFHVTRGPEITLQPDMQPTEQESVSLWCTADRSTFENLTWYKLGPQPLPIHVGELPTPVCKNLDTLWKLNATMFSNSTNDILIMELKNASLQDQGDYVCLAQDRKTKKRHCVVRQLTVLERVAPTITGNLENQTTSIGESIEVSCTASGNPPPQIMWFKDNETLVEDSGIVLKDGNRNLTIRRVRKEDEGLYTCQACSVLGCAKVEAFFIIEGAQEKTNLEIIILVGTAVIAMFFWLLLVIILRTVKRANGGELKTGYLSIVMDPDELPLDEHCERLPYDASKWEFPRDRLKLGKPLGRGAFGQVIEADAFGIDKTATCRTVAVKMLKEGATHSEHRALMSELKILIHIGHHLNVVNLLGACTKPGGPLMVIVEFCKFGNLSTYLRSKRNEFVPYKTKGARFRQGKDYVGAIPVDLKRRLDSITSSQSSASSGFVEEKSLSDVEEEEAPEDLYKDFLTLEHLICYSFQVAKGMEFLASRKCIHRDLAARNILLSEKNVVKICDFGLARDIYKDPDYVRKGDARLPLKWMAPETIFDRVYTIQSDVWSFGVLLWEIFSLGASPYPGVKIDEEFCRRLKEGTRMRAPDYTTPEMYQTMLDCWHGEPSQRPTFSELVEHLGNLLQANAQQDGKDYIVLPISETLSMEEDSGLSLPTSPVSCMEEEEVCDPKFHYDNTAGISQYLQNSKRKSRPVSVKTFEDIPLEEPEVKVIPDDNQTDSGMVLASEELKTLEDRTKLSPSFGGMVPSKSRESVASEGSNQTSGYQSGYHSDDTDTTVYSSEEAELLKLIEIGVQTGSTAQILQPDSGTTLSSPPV
# Assay: cell-based or functional assay
"Activity at 133 nM (% Inhibition), 24-hour Pre-incubation at 37° C., Average [%]","Activity at 133 nM (% Inhibition), 24-hour Pre-incubation at 37° C., N = 1 [%]","Activity at 133 nM (% Inhibition), 24-hour Pre-incubation at 37° C., N = 2 [%]",Binder
57,36,77,B1
85,88,82,B2
80,75,85,B3
26,23,30,B4
67,45,88,B5
36,25,47,B6
23,19,27,B7
83,69,97,B8

# Target: T1, KDR
# Assay: cell-based or functional assay
# Remark: another data set of the same source
Binder,"Activity at 133 nM Antibody Concentration (% Survival Inhibition), Average [%]","Activity at 133 nM Antibody Concentration (% Survival Inhibition), N = 1 [%]","Activity at 133 nM Antibody Concentration (% Survival Inhibition), N = 2 [%]"
B1,69,70,67
B2,73,80,66
B3,85,85,85
B4,-12,3,-27
B5,103,104,102
B6,0,9,-10
B7,-2,6,-10
B8,-16,-5,-27

# Target: T1, KDR
# Assay: cell-based or functional assay
# Remark: another data set of the same source
"Activity at 133 nM (% Inhibition), 1-hour Pre-incubation at 4° C., Average [%]","Activity at 133 nM (% Inhibition), 1-hour Pre-incubation at 4° C., N = 1 [%]","Activity at 133 nM (% Inhibition), 1-hour Pre-incubation at 4° C., N = 2 [%]",Binder
79,79,79,B1
87,86,88,B2
68,64,73,B3
44,36,52,B4
80,78,83,B5
43,35,50,B6
32,30,33,B7
33,29,37,B8

# Target: T1, KDR
# Assay: cell-based or functional assay
# Remark: another data set of the same source
"% of Max VEGF KDR pTyr Activity (at 133 nM antibody concentration), Average [%]","% of Max VEGF KDR pTyr Activity (at 133 nM antibody concentration), N = 1 [%]","% of Max VEGF KDR pTyr Activity (at 133 nM antibody concentration), N = 2 [%]",Binder
9,11,6,B1
7,7,7,B2
13,15,12,B3
16,19,12,B4
8,6,10,B5
13,17,10,B6
12,15,10,B7
10,11,8,B8

# Target: T1, KDR
# Assay: cell-based or functional assay
# Remark: another data set of the same source
"% Inhibition of VEGF165-mediated 6-keto Prostaglandin F1α release at 133 nM Antibody Concentration, Average [%]","% Inhibition of VEGF165-mediated 6-keto Prostaglandin F1α release at 133 nM Antibody Concentration, N = 1 [%]","% Inhibition of VEGF165-mediated 6-keto Prostaglandin F1α release at 133 nM Antibody Concentration, N = 2 [%]",Binder
76,37,115,B1
95,76,114,B2
95,72,119,B3
19,1,38,B4
142,106,178,B5
49,12,86,B6
25,8,41,B7
24,15,33,B8
